Numbering of substitutions follows the chain as printed.

Sequences and labels used below:
B1: VH 10 / VL 6 (antibody, V domains shown)
VH: QVQLVQSGAEVKKPGSSVKVSCKASGFTFSTYAIHWVRQAPGQGLEWMGVISYDANYKYYAQKFQGRVTITRDNSKSTAYMELSSLRSEDTAVYYCARDSRLRSLLYFEWLSQGYFDYWGQGTTLTVSS
VL: EIVMTQSPATLSVSPGERATLSCRSSQSITFDYKNYLAWYQQKPGQAPRLLIYWGSTRATGIPARFSGSGSGTEFTLTISSLQSEDFAVYYCQQHYRTPPSFGQGTKVEIK
B2: VH 10 / VL 4 (antibody, V domains shown)
VH: B1 VH
VL: DIVMTQSPDSLAVSLGERATINCKSSQSVTFDYKNYLAWYQQKPGQPPKLLIYWASTRESGVPDRFSGSGSGTDFTLTISSLQAEDVAVYYCQQHYRTPPSFGQGTKVEIK
B3: VH 9 / VL 4 (antibody, V domains shown)
VH: B1 VH with R98K, R101Q
VL: B2 VL
B4: VH 11 / VL 4 (antibody, V domains shown)
VH: B1 VH with S16A, H35N, P41T, V50W, I70M, N74T, K76I, R98K, R101Q
VL: B2 VL
B5: VH 8 / VL 3 (antibody, V domains shown)
VH: EVQLLESGGGLVQPGGSLRLSCAASGFTFSSYAMHWVRQAPGKGLEWVAVISYDANYKYYADSVKGRFTISRDNSKNTLYLQMNSLRAEDTAVYYCAKDSRLRSLLYFEWLSQGYFDYWGQGTLVTVSS
VL: DIQMTQSPSSLSASVGDRVTITCRSSQSITFDYKNYLAWYQQKPGKAPKLLIYAASSLQSGVPSRFSGSGSGTDFTLTISSLQPEDFATYYCQQHYRTPPSFGQGTKVEIK
B6: VH 7 / VL 6 (antibody, V domains shown)
VH: B5 VH with A49S, R101Q, L124T, V125L
VL: B1 VL
B7: VH 6 / VL 2 (antibody, V domains shown)
VH: B5 VH with E1Q, L5V, L11V, G16R, S30D, S31T, K98R
VL: B5 VL with A54W, A55G
B8: VH 12 / VL 2 (antibody, V domains shown)
VH: B1 VH with S16A, H35N, P41T, I70M, N74T, K76I, R101Q
VL: B5 VL with A54W, A55G
B9: VH 3 / VL 3 (antibody, V domains shown)
VH: B5 VH with E1Q, L5V, L11V, G16R, S31T, R101Q
VL: B5 VL
B10: VH 8 / VL 7 (antibody, V domains shown)
VH: B5 VH
VL: B1 VL with W54S, G55A
B11: VH 5 / VL 2 (antibody, V domains shown)
VH: B5 VH with E1Q, L5V, L11V, G16R, S31T, A49C, I70C, K98R
VL: B5 VL with A54W, A55G
B12: VH 5 / VL 6 (antibody, V domains shown)
VH: B5 VH with E1Q, L5V, L11V, G16R, S31T, A49C, I70C, K98R
VL: B1 VL
B13: VH 3 / VL 2 (antibody, V domains shown)
VH: B5 VH with E1Q, L5V, L11V, G16R, S31T, R101Q
VL: B5 VL with A54W, A55G
B14: VH 8 / VL 6 (antibody, V domains shown)
VH: B5 VH
VL: B1 VL
B15: VH 3 / VL 6 (antibody, V domains shown)
VH: B5 VH with E1Q, L5V, L11V, G16R, S31T, R101Q
VL: B1 VL
B16: VH 5 / VL 4 (antibody, V domains shown)
VH: B5 VH with E1Q, L5V, L11V, G16R, S31T, A49C, I70C, K98R
VL: B2 VL
B17: VH 10 / VL 2 (antibody, V domains shown)
VH: B1 VH
VL: B5 VL with A54W, A55G

The first experiment concerns the target H3 (A/Brisbane/10/2007) (influenza A virus H3 …). Briefly: ELISA.
One may read the EC50 as the midpoint of the concentration-response curve. As for B1, a half-maximal effect (EC50) was put at 0.0695 nM.

B2 gave an EC50 of 0.0241 nM.

With B3, it took 0.0608 nM to reach a half-maximal effect (EC50).

For the molecule B4, the EC50 came to 112 nM.

Turning to B5, the midpoint of the response, the EC50, lay at 0.0286 nM. This EC50 is about 3900-fold lower than that of the molecule before.

B6 came in with an EC50 of 0.274 nM.

The molecule B7 displayed an EC50 of 0.108 nM.

In turn, B8 displayed an EC50 of 88.9 nM.

Turning to B9, the EC50 was 0.0386 nM.

B10 came in with an EC50 of 0.0356 nM.

In turn, B11 returned an EC50 of 0.0219 nM.

The molecule B12 came in with an EC50 of 0.0295 nM.

For B13, the EC50 is 0.0313 nM.

For B14, the EC50 is 0.0261 nM.

As to B15, the midpoint of the response, the EC50, lay at 0.0313 nM.

The molecule B16 gave an EC50 of 0.0268 nM.

Molecule B17 had an EC50 of 0.0412 nM.

For another experiment, the target named is H1 (A/Cali/09/2007). Nature of the experiment: ELISA. For orientation: An ELISA detects its analyte on a solid surface through an enzyme-linked reagent.
The molecule B1 registered an EC50 of 0.0175 nM.

The molecule B2 had an EC50 of 0.0181 nM.

Regarding B3, it took 0.0186 nM to reach a half-maximal effect (EC50).

In turn, B4 returned an EC50 of 0.0244 nM.

Molecule B5 had an EC50 of 0.0218 nM.

B6 yielded an EC50 of 0.0239 nM.

In the case of B7, it took 0.0207 nM to reach a half-maximal effect (EC50).

Turning to B8, the EC50 was determined as 0.0161 nM.

B9 registered an EC50 of 0.0246 nM.

Consider B10, for which the midpoint of the response, the EC50, lay at 0.0318 nM.

For B11, the EC50 was 0.0231 nM.

As to B12, a half-maximal effect (EC50) was put at 0.0317 nM. This EC50 and that of the molecule before are within 1.5-fold of each other.

B13 displayed an EC50 of 0.019 nM.

Molecule B14 yielded an EC50 of 0.0269 nM.

As for B15, the EC50 came out at 0.0268 nM.

The molecule B16 yielded a concentration giving a half-maximal response (EC50) of 0.0285 nM.

Molecule B17 yielded an EC50 of 0.0227 nM.
